# Data published in patent US11499162B2, “Plants having increased tolerance to herbicides” (BASF SE, priority 2016, dated 2022).
# Type: biochemical
# Details: pH 7.2
# Procedure, shortened: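 % degradation measured against empty-vector control by UPLC-HR-MS, with product identity confirmed by exact mass and MS-MS. Conditions: 25 mM sodium phosphate pH 7.2, 30 °C, substrates at 1–10 nM. Enzyme source: TriA-expressing E. coli resting cells incubated with azines, melamine or atrazine.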
Molecule,"Degradation in % of 6-cyclopentyl-N4-(2,3,4,5,6-pentafluorophenyl)-1,3,5-triazine-2,4-diamine [%]",Degradation in % of Melamine [%]
"L74A: mutated TriA variant of SEQ ID NO: 2 (protein, Pseudomonas) MQTLSIQHGTLVTMDQYRRVLGDSWVHVQDGRIVALGVHAESVPPPADRVIDARGKVVLPGFINAHTHVNQILARGGPSHGRQLYDWLFNVLYPGQKAMRPEDVAVAVRLYCAEAVRSGITTINDNADSAIYPGNIEAAMAVYGEVGVRVVYARMFFDRMDGRIQGYVDALKARSPQVELCSIMEETAVAKDRITALSDQYHGTAGGRISVWPAPAITPAVTVEGMRWAQAFARDRAVMWTLHMAESDHDERLHWMSPAEYMECYGLLDERLQVAHCVYFDRKDVRLLHRHNVKVASQVVSNAYLGSGVAPVPEMVERGMAVGIGTDDGNCNDSVNMIGDMKFMAHIHRAVHRDADVLTPEKILEMATIDGARSLGMDHEIGSIETGKRADLILLDLRHPQTTPHHHLAATIVFQAYGNEVDTVLIDGNVVMENRRLSFLPPERELAFLEEAQSRATAILQRANMVANPAWRSL",1,0
"N70LQ71IL74A: mutated TriA variant of SEQ ID NO: 2 (protein, Pseudomonas) MQTLSIQHGTLVTMDQYRRVLGDSWVHVQDGRIVALGVHAESVPPPADRVIDARGKVVLPGFINAHTHVLIILARGGPSHGRQLYDWLFNVLYPGQKAMRPEDVAVAVRLYCAEAVRSGITTINDNADSAIYPGNIEAAMAVYGEVGVRVVYARMFFDRMDGRIQGYVDALKARSPQVELCSIMEETAVAKDRITALSDQYHGTAGGRISVWPAPAITPAVTVEGMRWAQAFARDRAVMWTLHMAESDHDERLHWMSPAEYMECYGLLDERLQVAHCVYFDRKDVRLLHRHNVKVASQVVSNAYLGSGVAPVPEMVERGMAVGIGTDDGNCNDSVNMIGDMKFMAHIHRAVHRDADVLTPEKILEMATIDGARSLGMDHEIGSIETGKRADLILLDLRHPQTTPHHHLAATIVFQAYGNEVDTVLIDGNVVMENRRLSFLPPERELAFLEEAQSRATAILQRANMVANPAWRSL",0,2
"R82M: mutated TriA variant of SEQ ID NO: 2 (protein, Pseudomonas) MQTLSIQHGTLVTMDQYRRVLGDSWVHVQDGRIVALGVHAESVPPPADRVIDARGKVVLPGFINAHTHVNQILLRGGPSHGMQLYDWLFNVLYPGQKAMRPEDVAVAVRLYCAEAVRSGITTINDNADSAIYPGNIEAAMAVYGEVGVRVVYARMFFDRMDGRIQGYVDALKARSPQVELCSIMEETAVAKDRITALSDQYHGTAGGRISVWPAPAITPAVTVEGMRWAQAFARDRAVMWTLHMAESDHDERLHWMSPAEYMECYGLLDERLQVAHCVYFDRKDVRLLHRHNVKVASQVVSNAYLGSGVAPVPEMVERGMAVGIGTDDGNCNDSVNMIGDMKFMAHIHRAVHRDADVLTPEKILEMATIDGARSLGMDHEIGSIETGKRADLILLDLRHPQTTPHHHLAATIVFQAYGNEVDTVLIDGNVVMENRRLSFLPPERELAFLEEAQSRATAILQRANMVANPAWRSL",2,2
"R82L: mutated TriA variant of SEQ ID NO: 2 (protein, Pseudomonas) MQTLSIQHGTLVTMDQYRRVLGDSWVHVQDGRIVALGVHAESVPPPADRVIDARGKVVLPGFINAHTHVNQILLRGGPSHGLQLYDWLFNVLYPGQKAMRPEDVAVAVRLYCAEAVRSGITTINDNADSAIYPGNIEAAMAVYGEVGVRVVYARMFFDRMDGRIQGYVDALKARSPQVELCSIMEETAVAKDRITALSDQYHGTAGGRISVWPAPAITPAVTVEGMRWAQAFARDRAVMWTLHMAESDHDERLHWMSPAEYMECYGLLDERLQVAHCVYFDRKDVRLLHRHNVKVASQVVSNAYLGSGVAPVPEMVERGMAVGIGTDDGNCNDSVNMIGDMKFMAHIHRAVHRDADVLTPEKILEMATIDGARSLGMDHEIGSIETGKRADLILLDLRHPQTTPHHHLAATIVFQAYGNEVDTVLIDGNVVMENRRLSFLPPERELAFLEEAQSRATAILQRANMVANPAWRSL",1,1
"Q96D: mutated TriA variant of SEQ ID NO: 2 (protein, Pseudomonas) MQTLSIQHGTLVTMDQYRRVLGDSWVHVQDGRIVALGVHAESVPPPADRVIDARGKVVLPGFINAHTHVNQILLRGGPSHGRQLYDWLFNVLYPGDKAMRPEDVAVAVRLYCAEAVRSGITTINDNADSAIYPGNIEAAMAVYGEVGVRVVYARMFFDRMDGRIQGYVDALKARSPQVELCSIMEETAVAKDRITALSDQYHGTAGGRISVWPAPAITPAVTVEGMRWAQAFARDRAVMWTLHMAESDHDERLHWMSPAEYMECYGLLDERLQVAHCVYFDRKDVRLLHRHNVKVASQVVSNAYLGSGVAPVPEMVERGMAVGIGTDDGNCNDSVNMIGDMKFMAHIHRAVHRDADVLTPEKILEMATIDGARSLGMDHEIGSIETGKRADLILLDLRHPQTTPHHHLAATIVFQAYGNEVDTVLIDGNVVMENRRLSFLPPERELAFLEEAQSRATAILQRANMVANPAWRSL",4,0
"Q96E: mutated TriA variant of SEQ ID NO: 2 (protein, Pseudomonas) MQTLSIQHGTLVTMDQYRRVLGDSWVHVQDGRIVALGVHAESVPPPADRVIDARGKVVLPGFINAHTHVNQILLRGGPSHGRQLYDWLFNVLYPGEKAMRPEDVAVAVRLYCAEAVRSGITTINDNADSAIYPGNIEAAMAVYGEVGVRVVYARMFFDRMDGRIQGYVDALKARSPQVELCSIMEETAVAKDRITALSDQYHGTAGGRISVWPAPAITPAVTVEGMRWAQAFARDRAVMWTLHMAESDHDERLHWMSPAEYMECYGLLDERLQVAHCVYFDRKDVRLLHRHNVKVASQVVSNAYLGSGVAPVPEMVERGMAVGIGTDDGNCNDSVNMIGDMKFMAHIHRAVHRDADVLTPEKILEMATIDGARSLGMDHEIGSIETGKRADLILLDLRHPQTTPHHHLAATIVFQAYGNEVDTVLIDGNVVMENRRLSFLPPERELAFLEEAQSRATAILQRANMVANPAWRSL",0,0
"R82G: mutated TriA variant of SEQ ID NO: 2 (protein, Pseudomonas) MQTLSIQHGTLVTMDQYRRVLGDSWVHVQDGRIVALGVHAESVPPPADRVIDARGKVVLPGFINAHTHVNQILLRGGPSHGGQLYDWLFNVLYPGQKAMRPEDVAVAVRLYCAEAVRSGITTINDNADSAIYPGNIEAAMAVYGEVGVRVVYARMFFDRMDGRIQGYVDALKARSPQVELCSIMEETAVAKDRITALSDQYHGTAGGRISVWPAPAITPAVTVEGMRWAQAFARDRAVMWTLHMAESDHDERLHWMSPAEYMECYGLLDERLQVAHCVYFDRKDVRLLHRHNVKVASQVVSNAYLGSGVAPVPEMVERGMAVGIGTDDGNCNDSVNMIGDMKFMAHIHRAVHRDADVLTPEKILEMATIDGARSLGMDHEIGSIETGKRADLILLDLRHPQTTPHHHLAATIVFQAYGNEVDTVLIDGNVVMENRRLSFLPPERELAFLEEAQSRATAILQRANMVANPAWRSL",0,0
